Reference: US20260234246A1 (CAEDO ONCOLOGY, published 2026)

Key:
[1] = target: T1, human CD47 on the surface of cells (human cancer cell lines and human red blood cells) (human, UniProt Q08722 19-323); test: flow cytometry, FITC-mCO-1 on H4 cells
T1 construct: Native CD47 of human cell lines (Jurkat, Reh, CCRF-CEM and others) and of RBCs from healthy donors; also called cell-surface CD47
Method: (§1) PBS-washed cancer cell lines or RBCs were pelleted and washed with washing buffer (3% (w/v) BSA, 1% (w/v) sodium azide in PBS) and incubated with Human BD Fc Block for 10 minutes before being plated into a round-bottom 96 well plate (2.5×10⁵ cells per well). Antibodies were conjugated with FITC using the FITC conjugation kit from Abcam. […] All samples were prepared in duplicates. Cells were washed three times and resuspended in cold washing buffer. Cells were kept on ice until analyses by flow cytometry. Excitation wavelength FITC: 488 nm, detection: 530/30 nm.

[2] = target: T1, human CD47 on the surface of cells …; test: flow cytometry, FITC-mCO-1 on A-172 cells
[3] = target: T1, human CD47 on the surface of cells …; test: flow cytometry, FITC-mCO-1 on HT-1197 cells
Method: as §1

[4] = target: T1, human CD47 on the surface of cells …; test: flow cytometry, FITC-mCO-1 on Reh cells
[5] = target: T1, human CD47 on the surface of cells …; test: flow cytometry, FITC-mCO-1 on U-118-MG cells
Method: as §1

[6] = target: T1, human CD47 on the surface of cells …; test: flow cytometry, FITC-mCO-1 on SW780 cells
[7] = target: T1, human CD47 on the surface of cells …; test: flow cytometry, FITC-mCO-1 on TCCSUP cells
Method: as §1

[8] = target: T1, human CD47 on the surface of cells …; test: flow cytometry, FITC-mCO-1 on MOLT-4 cells
[9] = target: T1, human CD47 on the surface of cells …; test: flow cytometry, FITC-mCO-1 on human RBCs (FIG. 1E)
Method: as §1

[10] = target: T1, human CD47 on the surface of cells …; test: flow cytometry, FITC-mCO-1 on SW1088 cells
Method: as §1

[11] = target: T1, human CD47 on the surface of cells …; test: flow cytometry, FITC-mCO-1 on U-87-MG cells
[12] = target: T1, human CD47 on the surface of cells …; test: flow cytometry, FITC-mCO-1 on T24 cells
Method: as §1

[13] = target: T1, human CD47 on the surface of cells …; test: flow cytometry, FITC-mCO-1 on SUP-T1 cells
Method: as §1

[14] = target: T1, human CD47 on the surface of cells …; test: flow cytometry on human RBCs (same experiment as paragraph 345, printed more exactly)
[15] = target: T1, human CD47 on the surface of cells …; test: flow cytometry, FITC-mCO-1 on Raji cells
[16] = target: T1, human CD47 on the surface of cells …; test: flow cytometry, FITC-mCO-1 on CCRF-CEM cells
[17] = target: T1, human CD47 on the surface of cells …; test: flow cytometry, FITC-mCO-1 on K-562 cells
Method: as §1

[18] = target: T1, human CD47 on the surface of cells …; test: flow cytometry, FITC-mCO-1 on HT-1376 cells
[19] = target: T1, human CD47 on the surface of cells …; test: flow cytometry, FITC-mCO-1 on HL-60 cells
[20] = target: T1, human CD47 on the surface of cells …; test: flow cytometry, FITC-mCO-1 on UM-UC-3 cells

T1 sequence (Q08722 19-323 limits assumed): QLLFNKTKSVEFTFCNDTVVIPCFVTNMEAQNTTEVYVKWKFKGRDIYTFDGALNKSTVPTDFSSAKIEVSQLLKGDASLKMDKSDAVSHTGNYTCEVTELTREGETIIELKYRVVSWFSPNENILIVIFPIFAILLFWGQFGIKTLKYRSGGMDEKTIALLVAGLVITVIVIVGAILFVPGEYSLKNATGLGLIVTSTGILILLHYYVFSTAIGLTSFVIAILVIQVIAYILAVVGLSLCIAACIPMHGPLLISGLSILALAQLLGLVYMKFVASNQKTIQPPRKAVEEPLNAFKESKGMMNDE

B1: murine CO-1 (mCO-1) antibody (antibody, V domains shown)
VH: QIQLVQSGPELKKPGETVKISCKASGYTFTNFGMHWVKQAPGKGLKWMGWINTYTGEPTYTDDFKGRFAFSLETSASTAYLQINSLKNEDTATFFCTRGDYRYGDSWGQGTTLTVSS
VL: DVVMTQTPLSLPVSLGDQASISCRSSQSLVHSNGKTYLHWYLQKPGQSPKLLIYRVSNRFSGVPDRFSGSGSGTDFTLKISRIEAEDLGVYFCSQSTHVPFTFGSGTKLEIK
notes: Full length mouse IgG1 kappa antibody from a hybridoma
For B1, which EC50 [1] is on record?
The EC50 was 2.46 µg/mL.

What about the EC50 [2] of the same binder?
The EC50 was 3.5 µg/mL.

And the EC50 [3]?
The EC50 was 0.786 µg/mL.

What about the EC50 [4] of the same binder?
The EC50 was 2.8 µg/mL.

What about the EC50 [5] of the same binder?
Its EC50 is 0.404 µg/mL.

What about the EC50 [6] of the same binder?
Its EC50 is 0.334 µg/mL.

And the EC50 [7]?
The EC50 was 2.4 µg/mL.

And the EC50 [8]?
The EC50 was 0.0106 µg/mL.

And the EC50 [9]?
The EC50 was 0.04 µg/mL.

And the EC50 [10]?
The EC50 was 1.17 µg/mL.

What about the EC50 [11] of the same binder?
Its EC50 is 2.99 µg/mL.

What about the EC50 [12] of the same binder?
The EC50 was 0.9 µg/mL.

What about the EC50 [13] of the same binder?
The EC50 was 0.00425 µg/mL.

What about the EC50 [14] of the same binder?
Its EC50 is 0.044 µg/mL.

And the EC50 [15]?
The EC50 was 0.0267 µg/mL.

And the EC50 [16]?
Its EC50 is 0.00109 µg/mL.

And the EC50 [17]?
Its EC50 is 0.354 µg/mL.

And the EC50 [18]?
Its EC50 is 0.286 µg/mL.

What about the EC50 [19] of the same binder?
The EC50 was 0.593 µg/mL.

What about the EC50 [20] of the same binder?
The EC50 was 0.0553 µg/mL.
